Reference: patent US20240182575A1 (Ablynx, published 2024)

Columns and labels:
[1] = molecular target: T1, human CD28 on Jurkat cells (human, UniProt P10747 19-220); test: FACS competition, Jurkat cells; blocked ligand CD86-Fc
T1 construct: whole, on cells; also called native form of the CD28 antigen; cell expressed CD28
Description: (§1) The potency of cell-expressed CD28 binding Nanobodies to inhibit the interaction of CD28 with either CD80 or CD86 was also ranked using FACS based screening method. […] Dead cells were stained by including TOPRO3 vital dye in the final resuspension buffer. All samples were read on a BD FACSarray instrument. Dead cells were excluded from the analysis by gating out TOPRO3 vital dye positive scoring cells.

[2] = molecular target: T2, HuCD28-HuIgG1 (fusion protein of the extracellular part of human CD28 and human Fc gamma 1, R&D Systems Cat … (human, UniProt P10747 19-152; P01857 100-330 = IgG part); test: competition ELISA, CD28-hFc in solution; blocked ligand coated B7-1-muFc
T2 construct: extracellular domain;domain: Fc; bought; also called CD28-Ig; hCD28-Fc

[3] = molecular target: T1, human CD28 on Jurkat cells; test: FACS, Jurkat cells
Protocol: (§2) Binding of putative CD28 reactive Nanobodies clones was detected using unlabeled anti-c-myc tag mouse monoclonal antibody 9E10, followed by a phycoerythrin conjugated F(ab′)2 derived from goat-anti-mouse IgG (human and bovine crossabsorbed), and read on a BD FACSarray instrument. Dead cells were excluded from the analysis by gating out TOPRO3 vital dye positive scoring cells. Binding of the Nanobodies to cells was evaluated in BD FACSarray control software as PE channel histograms.

[4] = molecular target: T1, human CD28 on Jurkat cells; test: FACS competition, Jurkat cells; blocked ligand CD80-Fc
Description: as §1

[5] = molecular target: T3, rhB7-H2-Fc (fusion protein of the extracellular part of human B7-H2 (ICOSL) and mouse Fc gamma 1, R&D Systems … (human; mouse, UniProt O75144 19-256; P01868 98-324 = IgG part, limits assumed); test: competition ELISA, coated B7-H2; blocked ligand ICOS-biotin
T3 construct: extracellular domain;domain: Fc; bought; also called B7-H2 ectodomain

[6] = molecular target: T3, rhB7-H2-Fc (fusion protein of the …); test: ELISA, coated B7-H2
Protocol: Next, 10 μl of periplasmic extract containing Nanobody of the different clones in 100 μl 2% Marvel PBST were allowed to bind to the immobilized antigen. […] Binding specificity was determined based on OD values compared to controls having received no Nanobody (low control).
After expression, the Nanobodies were purified via the His-tag on Talon beads.

[7] = molecular target: T4, rhPDL2-Fc (fusion protein of the extracellular part of human PD-L2 and mouse Fc gamma 1, R&D Systems Cat … (human; mouse, UniProt Q9BQ51 20-220; P01868 98-324 = IgG part, limits assumed); test: ELISA, coated PD-L2
T4 construct: extracellular domain;domain: Fc; bought; also called PD-L2 ectodomain
Protocol: In short, 5 μg/ml PD-L2 ectodomain (R&D Systems, Minneapolis, US, Cat #1224-PL) was immobilized on maxisorp microtiter plates (Nunc, Wiesbaden, Germany) and free binding sites were blocked using 4% Marvel in PBS. Next, 10 μl of periplasmic extract containing Nanobody of the different clones in 100 μl 2% Marvel PBST were allowed to bind to the immobilized antigen. […] Binding specificity was determined based on OD values compared to controls having received no Nanobody (low control).
After expression, the obtained Nanobodies were purified via the His-tag on Talon beads.

[8] = molecular target: T4, rhPDL2-Fc (fusion protein of the …); test: competition ELISA, coated PD-L2; blocked ligand PD-1-biotin
Protocol: In short, 2 μg/ml PD-L2 ectodomain (R&D Systems, Minneapolis, US, Cat #1224-PL) was immobilized on maxisorp microtiter plates (Nunc, Wiesbaden, Germany) and free binding sites were blocked using 4% Marvel in PBS. Next, 0.5 μg/ml of PD-1 was preincubated with a dilution series of purified Nanobody.

[9] = molecular target: T5, HuCD86-MuIgG2a (fusion protein of the extracellular part of human CD86 and mouse Fc gamma 2a, Ancell Cat … (human; mouse, UniProt P42081 24-247; P01863 98-330 = IgG part); test: competition ELISA, coated CD86-Ig; blocked ligand CD28-Ig
T5 construct: extracellular domain;domain: Fc; bought; also called B7-2

[10] = molecular target: T6, rhB7H1-Fc (fusion protein of the extracellular part of human B7-H1 (PD-L1) and mouse Fc gamma 1, R&D Systems … (human; mouse, UniProt Q9NZQ7 19-238; P01868 98-324 = IgG part, limits assumed); test: competition ELISA, coated B7-H1; blocked ligand PD-1-biotin
T6 construct: extracellular domain;domain: Fc; bought; also called B7-H1 ectodomain
Protocol: Next, 0.5 μg/ml of PD-1 was preincubated with a dilution series of purified Nanobody.

[11] = molecular target: T6, rhB7H1-Fc (fusion protein of the …); test: ELISA, coated B7-H1
[12] = molecular target: T7, HuCTLA4-HuIgG1 (fusion protein of the extracellular part of human CD152 and human Fc gamma 1, CTLA4-Ig) (human, UniProt P16410 36-161); test: SPR, Biacore T100, CTLA4-Ig amine-coupled
T7 construct: extracellular domain; also called CTLA4-hFc; CTLA4-Fc; not shown: human Fc gamma 1
Protocol: Affinity constants (Kd) of individual purified Nanobody clones were determined by surface plasmon resonance on a Biacore T100 instrument. […] Remaining reactive groups were inactivated using ethanolamine. […] Each sample was injected for 2 min at a flow rate of 45 μl/min to allow for binding to chip-bound antigen. Next, binding buffer without Nanobody was sent over the chip at the same flow rate to allow for dissociation of bound Nanobody. After 2 min, remaining bound analyte was removed by injecting regeneration solution (10 mM Glycine/HCl pH 1.5). Binding curves obtained at different concentrations of Nanobody were used to calculate KD values. For some clones, only a single undetermined concentrations of Nanobody was injected.

[13] = molecular target: T8, human CTLA4 (Y201 mutated to valine) on stably transfected CHO-K1 cells (human, UniProt P16410 36-223); test: FACS, direct binding titration on human CTLA4 CHO cells (head prints IC50)
T8 construct: whole, on cells; the mutation of the intracellular position Y201 keeps the protein on the membrane; also called human CTLA4 overexpressing CHO cells; human CTLA4 transfectant
Protocol: as §2, with “CTLA4” for “CD28”

[14] = molecular target: T7, HuCTLA4-HuIgG1 (fusion protein of the …); test: alphascreen; competitor biotinylated HuCD80-MuIgG2a
Description: Individual clones were scored as putative CTLA4/CD80 interaction inhibiting if the presence of the periplasmic extract decreased the fluorescent signal of the acceptor beads.

[15] = molecular target: T9, cynomolgus monkey CTLA4 on stably transfected CHO-K1 cells (human CTLA4 cDNA with S13N, I17T and L105M) (human backbone with cynomolgus monkey …, UniProt P16410 36-223); test: FACS, direct binding titration on cyno CTLA4 CHO cells (head prints IC50)
T9 chain: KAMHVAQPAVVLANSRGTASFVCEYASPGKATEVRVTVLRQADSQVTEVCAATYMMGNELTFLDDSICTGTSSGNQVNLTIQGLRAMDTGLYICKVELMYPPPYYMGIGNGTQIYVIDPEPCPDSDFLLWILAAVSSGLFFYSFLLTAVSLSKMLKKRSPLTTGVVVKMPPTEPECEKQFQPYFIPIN

B1: 65C4 (VHH)
VHH: EVQLVESGGGLVQAGGSLRLSCKAAGRTFSSYAMGWFRQAPGKEREFVASIEWDGGGAYYEEAVKGRFTISRDNTKNTVYLQMDSLRPEDTAVYYCAASRWRTALTNYYDVADWGQGTQVTVSS
notes: Nanobody against CD28
IC50 (read off the curve) [1]: ~7 ng/well | IC50 (read off the curve) [2]: ~100 nM | EC50 (read off the curve) [3]: ~20 ng/well | IC50 (read off the curve) [4]: ~10 ng/well

B2: 95G5 (VHH)
VHH: EVQLVESGGGLVQAGGSLRLSCASSGSTFSIDVMGWYRQAPGKVRERVAIIGTGGFPVYADSVKGRFTISRDNAKNTVYLQMNSLKPEDTAVYYCNAARLVALGSWGQGTQVTVSS
notes: Nanobody against B7-H2 (ICOSL)
IC50 (read off the curve) [5]: ~10 nM | EC50 (read off the curve) [6]: ~100 nM

B3: 103D3 (VHH)
VHH: EVQLVESGGGLVEPGGSLRLSCVASGFTFSSYDMSWVRQAPGKGLEWVSTINSGGGITYRGSVKGRFTISRDNAKNTLYLQMNSLKPEDTAVYYCENGGSSYRRGQGTQVTVSS
notes: Nanobody against PD-L2
EC50 (read off the curve) [7]: ~7 nM | IC50 (read off the curve) [8]: ~10 nM

B4: 103F10 (VHH)
VHH: EVQLVESGGGLVQAGGSLRLSCAASGRTFSSGTMGWFRRAPGKEREFVASIPWSGGRTYYADSVKDRFTISRDNAQNTVFLQMNSLKPEDTAVYYCAFKERSTGWDFASWGQGIQVTVSS
notes: Nanobody against PD-L2
EC50 (read off the curve) [7]: ~20 nM

B5: 65C2 (VHH)
VHH: EVQLVESGGGLVQAGGSLRLSCAASGLTFSNYVMGWFRQAPGKEREFVGTISWDGSDTYYTHSVKGRFTISRDNAKNVVNLQMNSLKPEDTAVYYCAADYRPGGLLSLGKNEYDYWGQGTQVTVSS
notes: Nanobody against CD28
IC50 (read off the curve) [1]: ~2 ng/well | IC50 (read off the curve) [2]: ~90 nM | EC50 (read off the curve) [3]: ~2 ng/well | IC50 (read off the curve) [4]: ~3 ng/well

B6: CD8086PMP2B4 (VHH)
VHH: EVQLVESGGGLVQAGGSLRLSCAASGSIFSIYTMGWYRQAPGEQRELVAAITSGGSTNYADSVKGRFTISRDNAKNTVYLQMNSLKPEDTAVYYCNAIAHEEGVYRWDFWGQGTQVTVSS
notes: not shown: C-terminal c-myc tag and His6 tag
binding result [9]: binds

B7: 104B10 (VHH)
VHH: EVQLVESGGGLVQAGGSLRLSCAASGSTFSQYDVGWYRQAPGKQRELVAFSSSGGRTIYPDSVKGRFTFSRDNTKNTVYLQMTSLKPEDTAVYYCKIDWYLNSYWGQGTQVTVSS
IC50 (read off the curve) [10]: ~20 nM

B8: 104D2 (VHH)
VHH: EVQLVESGGGLVQPGGSLRLSCAASGFTLDYYAIGWFRQAPGKEREWASSISSSDGSTYYADSVKGRFTISRDNAKNTVFLQMNSLKPEDTAVYSCAASQAPITIATMMKPFYDYWGQGTQVTVSS
IC50 (read off the curve) [10]: ~10 nM | EC50 (read off the curve) [11]: 5 to 6 nM

B9: 103E3 (VHH)
VHH: EVQLVESGGGLVQTGGSLRLSCAASGFTLDYYGIGWFRQAPGKEREGVSFISGSDGSTYYAESVKGRFTISRDKAKNTVYLQMNSLKPEDTAVYYCAADPWGPPSIATMTSYEYKHWGQGTQVTVSS
notes: Nanobody against PD-L2
binding result [7]: binds

B10: 95E6 (VHH)
VHH: EVQLVESGGALVQPGGSLRLSCAASGFTLGDYVIGWFRQAPGKEREWVSGISSRDDTTYYANSVKGRFTISRDNAKNTMYLQMNSLKPEDSAVYYCALRSGIAVARAPTNYDYWGQGTQVTVSS
notes: as for B2
binding result [6]: binds

B11: 104F5 (VHH)
VHH: EVQLVESGGGLVQPGGSLRLSCAASGFTLDYYAKCWFRQAPGKEREWVSCISSSDGSTYYADSVKGRFTISRDNAKNTVYLQMNSLKPEDTAVYFCAARHGGPLTVEYFFDYWGQGTQVTVSS
IC50 (read off the curve) [10]: ~9 nM | EC50 (read off the curve) [11]: ~3 nM

B12: 4CTLAPMP2G9 (VHH)
VHH: EVQLVKSGGQLVQAGGSLRLSCAATGRTYNSYPLGWFRQAPGKEREFVAAISASGTLRAYADSVKGRFTISRDSAKNTVYLQMNNLKPEDTAVYYCARARSVGWRASHHLSDYDNWGQGTQVTVSS
notes: short label tied to the entry by the clone code only; not shown: C-terminal c-myc tag and His6 tag
Kd [12]: 1.69 nM | koff [12]: 0.00732 s⁻¹ | kon [12]: 4.35e+06 M⁻¹ s⁻¹ | IC50 [13]: 2.47 nM | IC50 [14]: 2.01 nM | IC50 [15]: 2.66 nM
